# Reference: paper PMC6509358, “A Secreted RNA Binding Protein Forms RNA-Stabilizing Granules in the Honeybee Royal Jelly”
# B1: 22 nt ssRNA (ssRNA)
# RNA: UCAUAUGGGCUCACUGUUACUA
# B2: 50 nt ssRNA (ssRNA)
# RNA: ACGCUUCUAACUUCAAGAUUUUACACAAUCAUAUGGGCUCACUGUUACUA
# B3: 18 nt ssRNA (ssRNA)
# RNA: UGUGUUUAUAGCGGAUUU
# Tests used:
# [1] = molecular target: major royal jelly protein 3 (MRJP-3) (Apis mellifera) (UniProt Q17060); test: SEC; MRJP-3 concentrated to 100 uM, 16/100 Superdex 200, eluted at 0.5 ml/min in RJ buffer (pH 4.0), no RNA; column calibrated with mass standards; monomer to higher-order oligomer
# [2] = molecular target: major royal jelly protein 3 (MRJP-3) (Apis mellifera) (UniProt Q17060); test: MST; increasing unlabelled MRJP-3 added to fluorescently labelled MRJP-3 monomer; Monolith NT.115, 25 °C, RJ buffer with 0.01% Tween 20; apparent Kd of self-association; signal stable from approximately 40 uM added MRJP-3
# MRJP-3 (jelly-purified) [3] = molecular target: T1, MRJP-3 (jelly-purified) (Apis mellifera, UniProt Q17060 21-544); test: MST; first of three binding phases; MST: RJ buffer (composition not in material) + 0.01% Tween 20, 25 C; EMSA: room temperature 0.5-3 h, 0.8% agarose, 1xTAE; conditions: protein: native; label: Alexa Fluor 488 (Ulysis) for MST
# T1 sequence: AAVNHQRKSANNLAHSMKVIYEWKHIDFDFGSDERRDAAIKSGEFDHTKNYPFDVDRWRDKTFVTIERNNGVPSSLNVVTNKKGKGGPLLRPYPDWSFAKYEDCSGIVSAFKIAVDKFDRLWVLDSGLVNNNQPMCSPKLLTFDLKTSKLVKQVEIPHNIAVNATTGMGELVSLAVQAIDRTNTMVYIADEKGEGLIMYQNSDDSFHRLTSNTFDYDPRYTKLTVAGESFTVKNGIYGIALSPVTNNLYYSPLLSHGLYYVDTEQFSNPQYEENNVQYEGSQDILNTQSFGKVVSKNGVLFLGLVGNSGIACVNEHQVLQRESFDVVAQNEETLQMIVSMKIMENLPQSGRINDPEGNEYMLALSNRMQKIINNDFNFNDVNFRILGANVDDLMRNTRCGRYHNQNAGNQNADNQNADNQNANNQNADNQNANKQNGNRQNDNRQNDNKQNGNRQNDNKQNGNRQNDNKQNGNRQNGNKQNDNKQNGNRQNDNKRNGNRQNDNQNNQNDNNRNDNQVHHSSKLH
# MRJP-3 (jelly-purified) [4] = molecular target: T1, MRJP-3 (jelly-purified); test: MST; third of three binding phases; MST: RJ buffer (composition not in material) + 0.01% Tween 20, 25 C; EMSA: room temperature 0.5-3 h, 0.8% agarose, 1xTAE; conditions: protein: native; label: Alexa Fluor 488 (Ulysis) for MST
# MRJP-3 (jelly-purified) [5] = molecular target: T1, MRJP-3 (jelly-purified); test: MST; second of three binding phases; MST: RJ buffer (composition not in material) + 0.01% Tween 20, 25 C; EMSA: room temperature 0.5-3 h, 0.8% agarose, 1xTAE; conditions: protein: native; label: Alexa Fluor 488 (Ulysis) for MST
# MRJP-3 (jelly-purified) [6] = molecular target: T1, MRJP-3 (jelly-purified); test: EMSA; 42.8 uM protein, 0.27 uM RNA; MST: RJ buffer (composition not in material) + 0.01% Tween 20, 25 C; EMSA: room temperature 0.5-3 h, 0.8% agarose, 1xTAE; conditions: protein: native
# MRJP-3 (jelly-purified) [7] = molecular target: T1, MRJP-3 (jelly-purified); test: EMSA; 42.8 uM protein; MST: RJ buffer (composition not in material) + 0.01% Tween 20, 25 C; EMSA: room temperature 0.5-3 h, 0.8% agarose, 1xTAE; conditions: protein: native
molecule,measurement,setting,value
major royal jelly protein 3 (MRJP-3) (from UniProt Q17060 21-544) (natural protein),stoichiometry N (monomer units),[1],20
same,Kd,[2],3.5 µM
B1,Kd,MRJP-3 (jelly-purified) [3],4 nM
same,Kd,MRJP-3 (jelly-purified) [4],25 µM
same,Kd,MRJP-3 (jelly-purified) [5],300 nM
B2,binding result,MRJP-3 (jelly-purified) [6],binds
B3,binding result,MRJP-3 (jelly-purified) [7],binds
